The values that follow come from the nanobody polyreactivity screen of Harvey et al. (2022).

The nature of the data set: yeast display, Sf9 membrane polyspecificity reagent, FACS + sequencing; frameworks hold sequencing errors. The gist of the method:
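Nanobodies from a synthetic yeast display library (Saccharomyces cerevisiae BJ5465), induced 36–48 hours with galactose, were stained 1 hour at 4 °C with 10% biotinylated, detergent-solubilized Sf9 membrane reagent, enriched on streptavidin microbeads, then FACS-sorted. Anti-HA (expression) and streptavidin (reagent binding) fluorescence set low and high (top ~1%) gates. Polyreactivity labels come from the gate of origin. Genes were colony-PCR amplified, MiSeq 2 × 250 sequenced and filtered by CDR length.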
For “QVQLVESGGGLVQAGGSLRLSCAASGFTFVRNTLGWYRQAPGKERELVATITFSGGSTYYADSVKGRFTISRDNAKNTVYLQMNTLKPEDTAVYYCAAEDWDDGYDYWGQGTQVTVSS”, the “polyreactivity (PSR sort gate)” value is given as “high polyreactivity”. The entry for “QVQLVESGGGLVQAGGSLRLSCAASGRIFYFNGMGWDRQAPGKERELVAAITWNTGSTYYADSVKGRFTISRDNAKNTVYLQMNSLKPEDTAVYYCNAPWAGQHPTLWKGGYWGQGTQVTVSS” is “low polyreactivity”. The entry for “QVQLVESGGGLVQAGGSLRLSCAASGRTIYYYAMGWYRQAPGKEREFVAAISWHGGSTYYADSVKGRFTISRDNAKNNVYLQMNSLKPEDTAVYYCAADIYLRGFHYDYWGQGTQVTVSS” is “low polyreactivity”; for “QVQLVESGGGLVQAGGSLRLSCAASGRTFYTNAMGWYRQAPGKERELSTNYADSVKGRFTISRDNAKNTVYLQMNSLKPEDTAVYYCNADGFLRFAGFDYWGQGTQVTVSS” it is “low polyreactivity”; for “QVQLVESGGGLVQAGGSLRLSCAASGSIFRVYAMGWYRQAPGKERELVAGISSRGGTSTYYADSVKGRFTISRDNAKNSVYLQMNSLNPEETAVYYCAVQVRYPGYDYWGQGTQVTVSS” it is “low polyreactivity”. As for “QVQLVESGGGLVQAGGSLRLSCAASGSIFWGNAMGWYRQAPGKERELVAAIRRGTSTYYADSVKGRFTISRDNAKNTVYVQMNSLKPEDTAVYYCAASPFRYVYHFDYWGQGTQVTVSS”, the “polyreactivity (PSR sort gate)” value is recorded as “high polyreactivity”. The entry for “QVQLVESGGGLVQAGGSLRLSCAASGSTLAYNAMGWYRQAPGKERELVATINFSGGSTYYADSVKGRFTISRDNSKNTVYLQMNSLKPEDTAVYYCNARGYWQYSPTKFDYWGQGTQVTVSS” is “low polyreactivity”. The entry for “QVQLVESGGRLVQAGGSLRLSCAASGFTIPHYAMGWYRQAPGKERELVAVISFSGGRTYYADSVKGRFTISRDNAKNTVYLQMNSLKPEDTAVYYCPAGFWDDYGKYYYWGQGTQVTVSS” is “high polyreactivity”; for “QVQLVESGGGLVQAGGSLRLSCAASGLIFRKYAMGWYRQAPGKERELVAAISRSGGSTYYADSVKGRFTISRDNAKTTVYLQMNSLKPEDTAVYYGAAQQHYGDGYWGQGTQVTVSS” it is “high polyreactivity”. Then “QVQLVESAVGLVQAGVSLRLSSAASGFIYYAYALGWYRQAPGKERELVAGISDSGASTYADSVKGRFTISRDNAKNTVYLQMNSLKPEDTAVYYCATTGYLSTKDYDEYGYWGQGTQVTVSS”, with “low polyreactivity”; and “QVQLVESGVGLVQAGGSHRLSCAASGPTFRYNTMGWYRQAPGKERELVASISSGDRTDYADSVKGRFTISRDNAKYTVYLQMNSLKPEDTAVYYCNNKWYSIYYYWGQGTQVTVSS”, with “high polyreactivity”; and “QVQLVESGGGLVQAGGSLRLSCAASGRIFVRNAMGWYRQAPGKERELVADITNGGSTNYADSVKGRFTITRDNAKNTVYLQMNSLKPEDTAVYYCAADTLGVYDGDYWGQVTQVTVSS”, with “low polyreactivity”.

As to “QVQLVESGGGLVQAGGSLRLSCAASGRIFGYYTMGWYRQAPGKEWEVVAGISSGGSTNYADSVKGRFTISRDNAKNTVYLQMNSLKPEDTAVYDCAAAYPHFGGYRYDYWGQGTQVTVSS”, the “polyreactivity (PSR sort gate)” value was “high polyreactivity”. For the sequence “QVQLVESGGGLVQAGGSLRLSCAASGFTFYKYVMGWYRPAPGKERELVAAITTSGGSTYYADSVKGRFTISRDNAKNTVYLQMNCLKPEDTAVYYCNARSLHTSEGDYWGQGTQVTVSS”, the “polyreactivity (PSR sort gate)” value is recorded as “low polyreactivity”. The entry for “QVQLVESGGGLVQAGGSLRLSCAASGSNWSYAMGWYSQAPGKESVLVATISRRGGSTYYADSVKGRFTISRDNAKNTVYLQMNSLKPEDTAVYYCAAAESASSFRFDYWGQGTQETVSS” is “high polyreactivity”; for “QVQLVESGGGLVQAGGSLRLSCAASGRTFVWYDMGWYRQAPGKERELVAAITKRGTSTYYADSVKGRFTISRDNGKNTVYLQMNRLKPEDTAVYYCAVEYIYWFHSRSSYIYDYWGQGTQVTVSS” it is “low polyreactivity”; for “QVQLVESGGGLVQAGGSLRLSCAASGSTFICKAMGWYRQAPGKERELVAAIDYRGGNTYYADSVKGRFTISRDYAKNSVYLHMNSLKPEHTAVYYCAARVVGYEYFYDYYYWGQGTQVTLSS” it is “low polyreactivity”. As to “QVQLVESGGGLVQAGGSLRLICAASGYTFYYAMGWYRQAPGKERELVAAISAGGGRTYYADSVKGRFTISRDNAKITVYLQMNSLKPEDTAVYYCNRVYRLTAYGYDYWGQGTQVTVSS”, the “polyreactivity (PSR sort gate)” value is on record as “high polyreactivity”. Regarding “QVQLVESGGGLVQAGGSLRLSCAASGRIFISYTMGLYRHAPGKERELVAGIDSSGTSTYYADSVKGRFTISRDNAKNTVYLQMNRLKPEDTAVYYCIVVANWKDTSTELDYWGQGTQVTVSS”, the “polyreactivity (PSR sort gate)” value is given as “low polyreactivity”. Then “QVQLVESGGVLVQAGGSLRLSCAASGSISSVYAMGWYRQAPGKDRELVAGITSGGSTNYADSVKGRFTISRDNAKITVYLQMNSLKPEDTAVYYCAAVYKGAGTHFDVFVKEFDYWRQGTQVTVSS”, with “low polyreactivity”.

Regarding “QVQLVESGGGLVQAGGSLRLSCAASGSIFYIYAMGWYRPAPGKEREFVAAITWTGGSTYYADSVKGRFTISRDNAKNTVYLQMNSLKPEDTAVYYCARATVGAWRKMYSWGQGTQVTVSS”, the “polyreactivity (PSR sort gate)” value is “high polyreactivity”. Then “QVQLVESGGGLVQAGGSLRLSCAASGRIFYSNDLGWYRQAPGKERELVAAITSSGASTYYADSVKGRFTISRDNEKNTVYLQMNSLKPEDTAVYYCNVDIGVYAYESDYWGQGTQVTVSS”, with “low polyreactivity”; and “QVQIVESGGGLVQAGGSLRLSCAASGRTFVVNAMGWYRQAPGKERELVASISNKGSTYYADSVKGRFTISRDNAKNTVYLQMNSLNPEDTAVYYCAADEYWSWDGTRYGVHYYYWGQGTQVTVSS”, with “low polyreactivity”.

As for “QVQLVESGGGLVQAGGSLRLSCAASGSIFWYYAMGWYRQAPGKERELVARITYSSGSTYYADSVKGRFTISRDNAKNTVYLQMNSLKPEDTAVFYCAVRLYSYLYNPFNYWGQGTQVTVSS”, the “polyreactivity (PSR sort gate)” value is given as “high polyreactivity”. Then “QVQLVESWGGLVQAGGSLRLSCAASGSTFDRYAMGWYRQAPGKERELVAAISGSAGRTYYADSVKGRFTISRENAKNTVYLQMNTLKPEDTAVYFCAAVQIVSGNYDYYWGQGTQVTVSS”, with “low polyreactivity”; and “QVQLVESGGGLVQAGGSLRLSCAASGSTFPTNAMGWYRQAPGKERELVAAISQRGDSTSYADSVKGRFTISRDNAKNTVYLQMNSLKPEDTAVYFCAVDAYSYYDSTWFWYDYWGQGTQVTVSS”, with “high polyreactivity”; and “QVQLEESGGGFVQAAGTLRLSCAPSGRIFLPYAMGWYRQAPGKEREFVAAITWGAGTTYYADSVKGRFTISRDNAKNTVYLQMNSLKPDDTAVYYCNARRRRAFSLYYYWGQGTQVTVSS”, with “high polyreactivity”. Regarding “QVQLVESGGGLVQAGGSLRLSCAASGSIFDTYAMGWYRQAPGKEREFVAAISGTDGSTYYADSVKGRFTISRDNAKNTVYLQMNSLKPEDTAVYYCNAEPPRGDTVSSGGEMDYWGQGTQVTVSS”, the “polyreactivity (PSR sort gate)” value is “low polyreactivity”. Then “QVQLVESGGGLVQAGGSLRLSCAASGRTFESYAMGWYRQAPGKERELVAAITSTDDRTYYADSVKGRFTISRDNAKNTVYLQMNSLKPEDTAVYYCAVESRRDDFEYDYWGQGTQVTVSS”, with “low polyreactivity”. The entry for “QVHLVESGGGLVQAGGSLRLSCSASGRTFPKYAMGWYRQAPGKERELVAAINKSGGSRYYADSVKGRFTISRDYAKNTVYLQMNSLKPEDTAVYYCAADWRGWSFFRGDDYWGQGTQVTVSS” is “high polyreactivity”; for “QVQLVESGGGLVQAGGSLRLSCAASGSIFPGYAMGWYRQAPGKERELVAAIDRSGGSTYYADSVKGRFTISRDNAKNTVYLQMNSLKPEDTAVYYCNRVFTWRYGYRYEYWGQGTQVTVSS” it is “high polyreactivity”; for “QVQLVESGGGLVQAGGSLRLSCAATGSILNYYAMGWYRQAPGKERELVATISSGGNTHYADSVKGRFTISRDNAKNTVYLQMNSLKPEDTAVYYSAAVASKHWGRDYWGQGTQVTVSS” it is “low polyreactivity”.

Turning to “QVQLVESGGGLVQAGGSLRLSCAAYGITFPSYVMGWYRQAPGKERELVAAISWRGGSTYYADSVKGRFTISRDNAKNTVYLQMNSLKPEDTAVYYCAAEYLVWYTFYPKYDYWGQGTQVTVSS”, the “polyreactivity (PSR sort gate)” value was “high polyreactivity”. The entry for “QVPLVESGRGLVQAGGSLRLSCAASGFIFKYYAMGWYRQAPGKEGELVASISSSGSSTYYADSVKGRFTISRDNAKNTVYLQMNSLKAEDTAVNYCNTVTYGPSAYDYLGQGTQVTVSS” is “low polyreactivity”. Then “QVQLVESGGGLVQAGGSLRLSCAASGRTFSYYAMGWYRQAPGKERELVAAITSRGSSTYYADSVKGRFTISRDNAKNTVYLQMNSLKPEDTAVYYCAKVRPYLDTNEYYYWGQGTQVTVSS”, with “high polyreactivity”. Turning to “QVQLVESGGGLVQAGGSLRLSCAASGRIFRNYAMGWYRQAPGKERELVAAISTRSGSTYYADSVKGRFTISRDNAKNTVYLQMNSLKPEDTAVYYCNKVSVGRYYALYYWGQGTKVTVSS”, the “polyreactivity (PSR sort gate)” value is on record as “high polyreactivity”. Then “QVQLVESGGGLVQAGGSLRLSCAASGSTFTGYTMGWYRQAPGKERELVASIRTYYADSVKGRFTISRDNAKNTVYLQMNSLKPEDTAVYYCAAKPGRYADYDYNSWGQGTQVTVSS”, with “low polyreactivity”; and “QVQLVESGGGLVQAGCSLRLSCAASGSTFTYYAMGWYRQAPGKERESVAAISSNGGSTSYADSVKGRFTISRDNAKNTVYLQMNSLKPEDTAVYYCAARSKRLAHDYWGQGTQVTVSS”, with “high polyreactivity”. Then “QVQLVESGGGLVQAGGSLRLSCAASGFTLATYAMGWYRQAPGKERELVAAITRSGGSTYYADSVKGRFTISRDNAKNTVYLQMNSLKPEDTAVYYCNAREVRYEYNYWGQGTQVTVSS”, with “low polyreactivity”; and “QVQHVESGGGLVQAGGSLRLSCAASGLIYSYYTMGWYRQAPGKERDLVAAITGSGGTTYYADSVKGRFTISRDNAKNTVYIQMNSLKPEDTAVYYCATPPPEVWQRWYREYDYWGQGTQVTVSS”, with “low polyreactivity”; and “QVQLQDSGGGLVQAGGSLRLNCATSGTIFVLWYMGCYRQAPGKERELVATINDGANTYYADSVKGRFTINRDNANSTVYLQMNSLQPEDSAVYYCSVYAIIVWGLGYWGQGTQVTVSS”, with “high polyreactivity”.
